Assay [1] concerns COX-2 in vHMEC over expressing TRF2. The experiment in a line: phospho-p38 inhibitor treatment of vHMEC over expressing TRF2; COX-2 by Q-PCR and immunoblot. The format is cell-based, human. The following applies: early passage vHMEC expressing TRF2, SB203580 24 hrs. The source says: Cell Culture: Human mammary epithelial cells (vHMEC) were isolated from reduction mammoplasty (RM) of four individuals RM9, RM15, RM16 and RM18. HMEC undergo a spontaneous proliferation barrier between 8 and 12 population doublings. Variant human mammary epithelial cells (vHMEC) escape this growth barrier and have silenced p16 through promoter methylation. Cells were propagated in 2D cultures in modified MCBD 170 media (MEGM, Lonza) as previously described (Romanov et al, 2001; Hammond et al 1984). All experiments were performed on exponentially growing early passage vHMEC (between 13 to 20 population doublings); RM9, 15, 16 and 18 cease to expand in cell number at population doublings 45, 60, 50 and 53, respectively. […]
(§1) Quantitative PCR: Total RNA was isolated from cells and cDNA synthesized using standard methods. cDNA was subsequently used for quantitative real-time PCR using the standard curve method. […]
(§2) Western Blotting, ELISA and Immunofluorescence: Cell pellets were lysed in T-PER buffer (Pierce). […] Activin A protein levels were measured using the Duo-Set Activin ELISA kit (R&D Systems) following the manufacturer's directions. […] Levels of activin A were determined in cells from all four donors. […] The mean fluorescent intensity of γH2AX signal (voxels) in each nucleus was determined with the Volocity 4.0.0 software package (Improvision) on Z-stacks. […]

Assay [2] deals with COX-2 and phospho-p38 in vHMEC. The experiment in a line: exogenous activin A treatment of vHMEC; COX-2 and phospho-p38 by Q-PCR and immunoblot. The settings on record: exogenous activin A 48 hrs. Type of assay: cell-based, human.
Description: Cell Culture: Human mammary epithelial cells (vHMEC) were isolated from reduction mammoplasty (RM) of four individuals RM9, RM15, RM16 and RM18. HMEC undergo a spontaneous proliferation barrier between 8 and 12 population doublings. Variant human mammary epithelial cells (vHMEC) escape this growth barrier and have silenced p16 through promoter methylation. Cells were propagated in 2D cultures in modified MCBD 170 media (MEGM, Lonza) as previously described (Romanov et al, 2001; Hammond et al 1984). All experiments were performed on exponentially growing early passage vHMEC (between 13 to 20 population doublings); RM9, 15, 16 and 18 cease to expand in cell number at population doublings 45, 60, 50 and 53, respectively. Activin A (Sigma) and the p38 inhibitor, SB203580, (Sigma) were added to culture media for 48 and 24 hours (respectively) prior to harvest at the doses shown in FIGS. 3 and 4. The same amount of solvent for each molecule was added to the culture media for controls.
as §1, §2
FIGS. 23A-D: Activin A is Up Regulated in vHMEC and Induces COX-2. A. Box plot showing the levels of activin A mRNA measured using Q-PCR in parental vHMEC, or vHMEC over expressing vector (pWP) or TRF2 from 4 donors. p-value was calculated using ANOVA and is shown in the inset. B, Box plot showing the levels of activin A protein measured using ELISA in parental vHMEC or vHMEC over expressing vector (pWP) or TRF2 from 4 donors. […]

For the molecule `C[S+]([O-])c1ccc(-c2nc(-c3ccncc3)c(-c3ccc(F)cc3)[nH]2)cc1` (centres unmarked) [SB203580], in assay [1] (Q-PCR, ANOVA p=0.002), the “COX-2 mRNA” value was “marked decrease”. The COX-2 protein levels entry in assay [1] (immunoblot) is “marked decrease”.

B1: activin A: a member of the TGF-β superfamily; a homodimer of the activin βA subunits (protein, UniProt P08476 311-426, looked up)
Inhibin beta A chain: GLECDGKVNICCKKQFFVSFKDIGWNDWIIAPSGYHANYCEGECPSHIAGTSGSSLSFHSTVINHYRMRGHSPFANLKSCCVPTKLRPMSMLYYDDGQNIIKKDIQNMIVEECGCS
modifications: Inhibin beta A chain
Regarding B1, in assay [2] (vHMEC from two donors, Q-PCR, ANOVA p=0.001), the “increase in COX-2 mRNA” value is on record as “approximately two-fold”. Further, in assay [2] (vHMEC from two donors, immunoblot), the “increase in COX-2 protein” value was “approximately two-fold”. In assay [2] (vHMEC, immunoblot), the “levels of phospho-p38” value is “increase”.

The values are drawn from patent US12332245B2, “Cancer biomarkers and methods of use thereof” (THE REGENTS OF THE UNIVERSITY OF CALIFORNIA, priority 2006, dated 2025).
